Read-outs that look alike come from different tables or passages of the source. Blank lines part the entries; values can stand above or below the molecule they belong to. Primed or numbered codes have the meaning given here. No end group written: not given here.
What was measured:
[1] = Pharmacokinetics of apelin and apelin conjugates, intravenous; assay type: in vivo, Sprague-Dawley rats; conditions: for pharmacokinetic properties compared to unmodified apelin: ELISA (FIG. 5); for bioavailability improvement: AUC versus native apelin-13, 0.1 mg/kg intravenous
Experimental: FIG. 5: Pharmacokinetics of apelin and apelin conjugates. Apelin alone or conjugated to the Vitamin D-(25)-PEG2k-maleimide carrier, or the Vitamin D-(3)-PEG2k-aldehyde carrier were injected intravenously into Sprague-Dawley rats at 0.1 mg/kg. Plasma samples were analyzed for apelin concentration by ELISA in duplicate and the average value from three animals were plotted on the semi-log graph.
Plasma samples were taken at 5 min, and 0.5, 1, 2, 4, 8 and 24 hr and analyzed for the presence of apelin by quantitative ELISA (Phoenix Pharmaceuticals, Burlingame, Calif., Cat. No. EK-057-23). […] Unmodified apelin decayed to near-background levels within 5 minutes of injection.
The decay rates of the carrier-conjugates are complex and probably represent a combination of slower renal clearance and protection from protease degradation. A pharmacokinetic analysis of the data was then performed using WinNonLin (PharSight) and GraphPad (Prism).

[2] = Bertrand et al. 2015; cited from earlier work
[3] = in vivo; cited from earlier work
[4] = molecular target: T1, human FGF21 receptor (FGFR1), recruitment of co-receptor β-Klotho (Homo sapiens, UniProt P11362+Q86Z14); test: PathHunter U2OS FGFR1-β-Klotho Functional Assay; assay type: cell-based; conditions: PathHunter U2OS cells expressing FGFR1, β-Klotho recruitment, chemiluminescence
T1 construct: host or cells: U2OS (PathHunter)
T1 sequence (P11362 22-822): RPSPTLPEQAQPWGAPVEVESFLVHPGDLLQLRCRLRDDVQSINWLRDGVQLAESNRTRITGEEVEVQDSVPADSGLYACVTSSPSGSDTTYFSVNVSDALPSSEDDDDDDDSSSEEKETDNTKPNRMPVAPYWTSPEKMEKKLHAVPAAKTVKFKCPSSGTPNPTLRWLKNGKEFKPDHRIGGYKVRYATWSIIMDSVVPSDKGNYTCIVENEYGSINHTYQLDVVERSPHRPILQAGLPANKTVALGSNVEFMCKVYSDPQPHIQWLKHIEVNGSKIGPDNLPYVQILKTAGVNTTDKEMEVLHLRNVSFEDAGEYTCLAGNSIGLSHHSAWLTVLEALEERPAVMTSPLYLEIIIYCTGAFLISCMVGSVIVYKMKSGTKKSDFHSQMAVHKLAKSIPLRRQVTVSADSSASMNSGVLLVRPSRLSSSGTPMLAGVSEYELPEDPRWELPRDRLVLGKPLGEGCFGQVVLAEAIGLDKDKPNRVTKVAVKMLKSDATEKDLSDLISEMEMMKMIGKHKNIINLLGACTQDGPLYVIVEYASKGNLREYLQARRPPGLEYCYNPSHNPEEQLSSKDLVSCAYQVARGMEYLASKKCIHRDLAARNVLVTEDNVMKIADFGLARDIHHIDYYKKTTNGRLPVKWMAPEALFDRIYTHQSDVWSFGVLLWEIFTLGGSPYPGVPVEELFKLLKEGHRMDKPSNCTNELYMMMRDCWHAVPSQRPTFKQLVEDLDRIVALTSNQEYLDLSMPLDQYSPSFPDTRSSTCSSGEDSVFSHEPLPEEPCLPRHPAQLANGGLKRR
T1 sequence (Q86Z14 52-1044 limits assumed): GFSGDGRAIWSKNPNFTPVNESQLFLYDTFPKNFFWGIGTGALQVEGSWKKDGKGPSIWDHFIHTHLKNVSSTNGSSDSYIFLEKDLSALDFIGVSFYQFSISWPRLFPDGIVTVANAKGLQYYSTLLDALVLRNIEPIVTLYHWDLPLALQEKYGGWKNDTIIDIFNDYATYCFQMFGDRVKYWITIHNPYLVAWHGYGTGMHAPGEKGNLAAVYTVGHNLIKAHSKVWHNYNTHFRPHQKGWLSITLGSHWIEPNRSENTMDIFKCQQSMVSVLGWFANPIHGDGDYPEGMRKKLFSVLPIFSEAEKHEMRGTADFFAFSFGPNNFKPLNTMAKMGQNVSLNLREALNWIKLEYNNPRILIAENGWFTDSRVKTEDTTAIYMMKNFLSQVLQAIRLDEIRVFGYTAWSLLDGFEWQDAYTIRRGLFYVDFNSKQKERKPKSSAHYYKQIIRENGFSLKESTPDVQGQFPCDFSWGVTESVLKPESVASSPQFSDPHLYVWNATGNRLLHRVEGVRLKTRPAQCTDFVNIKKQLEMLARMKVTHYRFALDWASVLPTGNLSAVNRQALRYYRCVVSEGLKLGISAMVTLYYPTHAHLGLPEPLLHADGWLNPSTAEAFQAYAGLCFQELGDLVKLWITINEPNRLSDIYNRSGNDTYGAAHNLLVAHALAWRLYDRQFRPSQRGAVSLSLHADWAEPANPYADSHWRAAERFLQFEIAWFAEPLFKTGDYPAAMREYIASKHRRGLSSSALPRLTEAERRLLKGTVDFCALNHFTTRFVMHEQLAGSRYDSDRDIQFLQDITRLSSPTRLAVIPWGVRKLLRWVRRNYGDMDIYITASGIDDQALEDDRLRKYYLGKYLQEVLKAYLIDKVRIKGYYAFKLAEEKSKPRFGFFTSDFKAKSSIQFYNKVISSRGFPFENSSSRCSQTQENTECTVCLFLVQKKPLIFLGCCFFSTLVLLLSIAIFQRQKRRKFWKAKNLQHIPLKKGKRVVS
Excerpt: In some embodiments, the activity of the FG21, when conjugated to a carrier, was substantially the same as unmodified protein. […] PathHunter® cells stably express human FGF21 receptor (FGFR1). They were monitored for recruitment of the co-receptor, β-Klotho, following exposure to the test compounds using the PathHunter® Detection reagent cocktail on a PerkinElmer Envision instrument with chemiluminescent signal detection. […] Thus, the FGF21 conjugates retained about the same receptor activity as the unmodified FGF21 protein or better.

[5] = Pharmacokinetics of FGF21 conjugates, subcutaneous; assay type: in vivo, Sprague Dawley rats; conditions: 0.1 mg/kg sc; for Cmax: plasma, human FGF21 ELISA
Experimental: The pharmacokinetics of FGF21 conjugates in Sprague Dawley rats were determined. Unmodified FGF21, VitD-(25)-PEG2K-FGF21 and VitD-(3)-PEG2K-FGF21 were compared. […] The samples were analyzed using commercial ELISA kits for human FGF21 (Millipore Cat. No. EZHFGF21-19K). […] Improvements in the mean residence time (MRT) and terminal rate constant (Lz) values were also observed.

[6] = natural state; WO03/011213, Kharitonenkov et al. 2005; cited from earlier work
[7] = 0.1 mg/kg intravenous, plasma, ELISA

Molecule: CSCC[C@H](NC(=O)[C@@H]1CCCN1C(=O)CNC(=O)[C@H](CCCCN)NC(=O)[C@H](Cc1cnc[nH]1)NC(=O)[C@H](CO)NC(=O)[C@H](CC(C)C)NC(=O)[C@H](CCCNC(=N)N)NC(=O)[C@@H]1CCCN1C(=O)[C@H](CCCNC(=N)N)NC(=O)[C@@H](N)CCC(N)=O)C(=O)N1CCC[C@H]1C(=O)N[C@@H](Cc1ccccc1)C(=O)O [apelin-13, reference compound]
time to decay to near-background levels after injection [1, 7]: ≤ 5 min | AUC ([1]; Sprague-Dawley, rat, 0.1 mg/kg intravenous, plasma, ELISA, read-out: AUC): 0.4 ng·h/mL | in vivo half-life [2]: ≤ 0.333 h

Molecule: VitD-(3)-PEG2K-apelin: Apelin-13 conjugated at N-terminal amine to Vitamin D-(3)-PEG2K-aldehyde carrier ({VitD‑(3)-PEG2K}-QRPRLSHKGPMPF)
AUC [1, 7]: 328 ng·h/mL | pharmacokinetic properties compared to unmodified apelin ([1]; 0.1 mg/kg intravenous, plasma): significantly improved pharmacokinetic properties | bioavailability improvement [1]: 820 fold

Molecule: PTH: Parathyroid hormone, polypeptide containing 84 amino acids secreted by the parathyroid glands
half-life [3]: approximately 4 minutes

Molecule: VitD-(25)-PEG2K-C-apelin: C-apelin (SEQ ID NO:16, N-terminal cysteine) conjugated to VitD-(25)-PEG2K-maleimide carrier (CQRPRLSHKGPMPF; VitD-(25)-PEG2K-maleimide carrier conjugate)
AUC [1, 7]: 85 ng·h/mL | pharmacokinetic properties compared to unmodified apelin ([1]; 0.1 mg/kg intravenous, plasma): improved pharmacokinetic properties | bioavailability improvement [1]: 213 fold

EC50 [4]: 0.16 µg/mL
B1: FGF21: Modified FGF21 expressed in E. coli, I3C substitution and His6 tag, SEQ ID NO:22, not conjugated (protein)
chain: MHHHHHHHPCPDSSPLLQFGGQVRQRYLYTDDAQQTEAHLEIREDGTVGGAADQSPESLLQLKALKPGVIQILGVKTSRFLCQRPDGALYGSLHFDPEACSFRELLLEDGYNVYQSEAHGLPLHLPGNKSPHRDPAPRGPARFLPLPGLPPALPEPPGILAPQPPDVGSSDPLSMVGPSQGRSPSYAS
modifications: His6 tag
AUCtot [5]: 228 h(ng/ml) | Lz (terminal rate constant) [5]: .534 h⁻¹ | MRT [5]: 2.8 h | Tmax [5]: 2 h | t½ [5]: 1.3 h | Cmax [5]: 59 ng/mL

EC50 [4]: 0.40 µg/mL
B2: VitD-(3)-PEG2K-FGF21: Modified FGF21 (SEQ ID NO:22) conjugated via free cysteine to VitD-(3)-PEG2K-maleimide (conjugate)
chain: B1 chain
modifications: VitD-PEG2K-maleimide conjugated at free cysteine
AUCtot [5]: 2727 h(ng/ml) | Lz (terminal rate constant) [5]: .0604 h⁻¹ | MRT [5]: 18.9 h | Tmax [5]: 4 h | half-life (t1/2) [5]: 11.5 h | half-life improvement compared to unmodified FGF21 [5]: 8.8 fold | improvement in AUC values versus unmodified FGF21 [5]: 12.0 fold | t½ [5]: 11.5 h | Cmax [5]: 118 ng/mL

EC50 [4]: 0.13 µg/mL
B3: VitD-(25)-PEG2K-FGF21: Modified FGF21 (SEQ ID NO:22) conjugated via free cysteine to VitD-(25)-PEG2K-maleimide (conjugate)
chain: B1 chain
modifications: VitD-PEG2K-maleimide conjugated at free cysteine
AUCtot [5]: 1640 h(ng/ml) | Lz (terminal rate constant) [5]: .131 h⁻¹ | MRT [5]: 7.9 h | Tmax [5]: 2 h | half-life (t1/2) [5]: 5.3 h | half-life improvement compared to unmodified FGF21 [5]: 4.1 fold | improvement in AUC values versus unmodified FGF21 [5]: 7.2 fold | t½ [5]: 5.3 h | Cmax [5]: 115 ng/mL

B4: FGF21 in its natural state: Fibroblast Growth Factor 21, protein that circulates in serum, natural state (protein, UniProt Q9NSA1 29-209, looked up)
Fibroblast growth factor 21: HPIPDSSPLLQFGGQVRQRYLYTDDAQQTEAHLEIREDGTVGGAADQSPESLLQLKALKPGVIQILGVKTSRFLCQRPDGALYGSLHFDPEACSFRELLLEDGYNVYQSEAHGLPLHLPGNKSPHRDPAPRGPARFLPLPGLPPALPEPPGILAPQPPDVGSSDPLSMVGPSQGRSPSYAS
half-life in serum [6]: about 1.1 hours

From patent publication US11116816B2, “Therapeutic vitamin d conjugates” (Extend Biosciences, Inc., priority 2014, dated 2021)
